The results in this text go back to patent publication US20250034212A1, “PEPTIDE” (PEPTIDREAM INC., priority 2021, published 2025).

Starred links: 1 amine or outer side, 2 acyl side, 3 side chain; linkers in the order of their positions; H or OH if unused. Positions of bridges follow the written chain, without caps; N, C: chain ends. Non-standard residues stand in square brackets, D forms with d. No end group written: not given here. *: point of attachment. KCOmeglumine = N6-(methyl-((2S,3R,4R,5R)-2,3,4,5,6-pentahydroxyhexyl)carbamoyl)-L-lysine, CN(C[C@H](O)[C@@H](O)[C@H](O)[C@H](O)CO)C(=O)NCCCC[C@H](N[*:1])C(=O)[*:2]; KCOpipzaa = N6-(4-(carboxymethyl)piperazine-1-carbonyl)-L-lysine, O=C(NCCCC[C@H](N[*:1])C(=O)[*:2])N1CCN(CC(=O)[*:3])CC1; CH3O(CH2CH2O)7C2H4CO = COCCOCCOCCOCCOCCOCCOCCOCCC(=O)*; Trp(6-aza) = N[C@@H](Cc1c[nH]c2cnccc12)C(=O)O; Trp(7-aza) = N[C@@H](Cc1c[nH]c2ncccc12)C(=O)O; 1Nal = N[C@@H](Cc1cccc2ccccc12)C(=O)O; Gly(NCH2CH2Ph) = O=C(O)CNCCc1ccccc1; 3Pal = N[C@@H](Cc1cccnc1)C(=O)O; 4Pal = N[C@@H](Cc1ccncc1)C(=O)O

B1: TGFb1_019 (peptide)
peptide: {CH2CO}-F[1Nal]V[KCOpipzaa]NV[4Pal]DD[Gly(NCH2CH2Ph)]V[1Nal]YH[KCOpipzaa]CG-NH2
modifications: thioether N-16
SMILES: CC(C)[C@@H]1NC(=O)CN(CCc2ccccc2)C(=O)[C@H](CC(=O)O)NC(=O)[C@H](CC(=O)O)NC(=O)[C@H](Cc2ccncc2)NC(=O)[C@H](C(C)C)NC(=O)[C@H](CC(N)=O)NC(=O)[C@H](CCCCNC(=O)N2CCN(CC(=O)O)CC2)NC(=O)[C@H](C(C)C)NC(=O)[C@H](Cc2cccc3ccccc23)NC(=O)[C@H](Cc2ccccc2)NC(=O)CSC[C@@H](C(=O)NCC(N)=O)NC(=O)[C@H](CCCCNC(=O)N2CCN(CC(=O)O)CC2)NC(=O)[C@H](Cc2c[nH]cn2)NC(=O)[C@H](Cc2ccc(O)cc2)NC(=O)[C@H](Cc2cccc3ccccc23)NC1=O
B2: TGFb1_022 (peptide)
peptide: {CH2CO}-F[1Nal]VVNV[4Pal]D[KCOpipzaa][Gly(NCH2CH2Ph)]V[1Nal]YH[KCOpipzaa]CG-NH2
modifications: thioether N-16
SMILES: CC(C)[C@@H]1NC(=O)CN(CCc2ccccc2)C(=O)[C@H](CCCCNC(=O)N2CCN(CC(=O)O)CC2)NC(=O)[C@H](CC(=O)O)NC(=O)[C@H](Cc2ccncc2)NC(=O)[C@H](C(C)C)NC(=O)[C@H](CC(N)=O)NC(=O)[C@H](C(C)C)NC(=O)[C@H](C(C)C)NC(=O)[C@H](Cc2cccc3ccccc23)NC(=O)[C@H](Cc2ccccc2)NC(=O)CSC[C@@H](C(=O)NCC(N)=O)NC(=O)[C@H](CCCCNC(=O)N2CCN(CC(=O)O)CC2)NC(=O)[C@H](Cc2c[nH]cn2)NC(=O)[C@H](Cc2ccc(O)cc2)NC(=O)[C@H](Cc2cccc3ccccc23)NC1=O
B3: TGFb1_030 (peptide)
peptide: {CH2CO}-F[1Nal]V[KCOmeglumine]NV[4Pal]D[KCOmeglumine][Gly(NCH2CH2Ph)]V[1Nal]YHECG-NH2
modifications: thioether N-16
SMILES: CC(C)[C@@H]1NC(=O)CN(CCc2ccccc2)C(=O)[C@H](CCCCNC(=O)N(C)C[C@H](O)[C@@H](O)[C@H](O)[C@H](O)CO)NC(=O)[C@H](CC(=O)O)NC(=O)[C@H](Cc2ccncc2)NC(=O)[C@H](C(C)C)NC(=O)[C@H](CC(N)=O)NC(=O)[C@H](CCCCNC(=O)N(C)C[C@H](O)[C@@H](O)[C@H](O)[C@H](O)CO)NC(=O)[C@H](C(C)C)NC(=O)[C@H](Cc2cccc3ccccc23)NC(=O)[C@H](Cc2ccccc2)NC(=O)CSC[C@@H](C(=O)NCC(N)=O)NC(=O)[C@H](CCC(=O)O)NC(=O)[C@H](Cc2c[nH]cn2)NC(=O)[C@H](Cc2ccc(O)cc2)NC(=O)[C@H](Cc2cccc3ccccc23)NC1=O
B4: TGFb1_020 (peptide)
peptide: {CH2CO}-F[1Nal]V[KCOmeglumine]NV[4Pal]DD[Gly(NCH2CH2Ph)]V[1Nal]YH[KCOpipzaa]CG-NH2
modifications: thioether N-16
SMILES: CC(C)[C@@H]1NC(=O)CN(CCc2ccccc2)C(=O)[C@H](CC(=O)O)NC(=O)[C@H](CC(=O)O)NC(=O)[C@H](Cc2ccncc2)NC(=O)[C@H](C(C)C)NC(=O)[C@H](CC(N)=O)NC(=O)[C@H](CCCCNC(=O)N(C)C[C@H](O)[C@@H](O)[C@H](O)[C@H](O)CO)NC(=O)[C@H](C(C)C)NC(=O)[C@H](Cc2cccc3ccccc23)NC(=O)[C@H](Cc2ccccc2)NC(=O)CSC[C@@H](C(=O)NCC(N)=O)NC(=O)[C@H](CCCCNC(=O)N2CCN(CC(=O)O)CC2)NC(=O)[C@H](Cc2c[nH]cn2)NC(=O)[C@H](Cc2ccc(O)cc2)NC(=O)[C@H](Cc2cccc3ccccc23)NC1=O
B5: TGFb1_026 (peptide)
peptide: {CH2CO}-F[1Nal]V[KCOmeglumine]NV[4Pal]D[KCOmeglumine][Gly(NCH2CH2Ph)]V[1Nal]YH[KCOpipzaa]CG-NH2
modifications: thioether N-16
SMILES: CC(C)[C@@H]1NC(=O)CN(CCc2ccccc2)C(=O)[C@H](CCCCNC(=O)N(C)C[C@H](O)[C@@H](O)[C@H](O)[C@H](O)CO)NC(=O)[C@H](CC(=O)O)NC(=O)[C@H](Cc2ccncc2)NC(=O)[C@H](C(C)C)NC(=O)[C@H](CC(N)=O)NC(=O)[C@H](CCCCNC(=O)N(C)C[C@H](O)[C@@H](O)[C@H](O)[C@H](O)CO)NC(=O)[C@H](C(C)C)NC(=O)[C@H](Cc2cccc3ccccc23)NC(=O)[C@H](Cc2ccccc2)NC(=O)CSC[C@@H](C(=O)NCC(N)=O)NC(=O)[C@H](CCCCNC(=O)N2CCN(CC(=O)O)CC2)NC(=O)[C@H](Cc2c[nH]cn2)NC(=O)[C@H](Cc2ccc(O)cc2)NC(=O)[C@H](Cc2cccc3ccccc23)NC1=O
B6: TGFb1_031 (peptide)
peptide: {CH2CO}-F[1Nal]VVNV[4Pal]DD[Gly(NCH2CH2Ph)]V[1Nal]YH[KCOpipzaa]CGK(CH3O(CH2CH2O)7C2H4CO)-NH2
modifications: thioether N-16
SMILES: COCCOCCOCCOCCOCCOCCOCCOCCC(=O)NCCCC[C@H](NC(=O)CNC(=O)[C@@H]1CSCC(=O)N[C@@H](Cc2ccccc2)C(=O)N[C@@H](Cc2cccc3ccccc23)C(=O)N[C@@H](C(C)C)C(=O)N[C@@H](C(C)C)C(=O)N[C@@H](CC(N)=O)C(=O)N[C@@H](C(C)C)C(=O)N[C@@H](Cc2ccncc2)C(=O)N[C@@H](CC(=O)O)C(=O)N[C@@H](CC(=O)O)C(=O)N(CCc2ccccc2)CC(=O)N[C@@H](C(C)C)C(=O)N[C@@H](Cc2cccc3ccccc23)C(=O)N[C@@H](Cc2ccc(O)cc2)C(=O)N[C@@H](Cc2c[nH]cn2)C(=O)N[C@@H](CCCCNC(=O)N2CCN(CC(=O)O)CC2)C(=O)N1)C(N)=O
notes: cyclic peptide; linker G K(MePEG8c) at the C-terminus

T2 sequence (P01137 279-390 limits assumed): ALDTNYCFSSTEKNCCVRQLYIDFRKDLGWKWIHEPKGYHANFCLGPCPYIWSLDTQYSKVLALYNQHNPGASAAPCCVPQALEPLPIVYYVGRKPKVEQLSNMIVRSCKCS
T1 sequence (P01137 279-390 limits assumed): as above

The first test concerns the target T1, recombinant human TGF-β1 (Homo sapiens, UniProt P01137).
T1 construct: purchased R&D systems
Description: ELISA of HA-tagged peptides with TGF-β1 beads. As to conditions: relative value with binding of peptide TGFb1_061 (SEQ ID NO: 62) to TGF-β1 set to 100%; HA-tagged peptides, TGF-β1 beads ELISA. Format: binding. An excerpt: In this Example, ELISA was used to evaluate the binding between TGF-β1 and each of various peptides consisting of the amino acid sequences set forth in SEQ ID NOs: 34-69 synthesized in Examples 6 and 7. An HA-tag was attached to the G end of the C-terminal linker of the peptide consisting of the amino acid sequence set forth in SEQ ID NOs: 34-69. As used herein, the “HA-tag” means the amino acid sequence of PEG10[…] (SEQ ID NO: 70).
The binding activity of each peptide to TGF-β1 was examined by ELISA using the peptide consisting of the amino acid sequence set forth in SEQ ID NOs: 34-69 having an HA-tag attached and TGF-β1 beads.
Recombinant human TGF-β1 (R&D Systems) was immobilized on Dynabead M-270 Carboxylic Acid (Thermo fisher scientific) to prepare TGF-β1 beads. The immobilization reaction was performed using the Amine Coupling kit (DOJINDO LABORATORIES).
TGF-β1 beads and each peptide having the HA-tag sequence attached at the C-terminus were reacted in PBS (PBS-T) containing 0.1% Tween 20 (NACALAI TESQUE, INC.) for 1 hour and then washed by PBS-T. To detect the peptide bound to the TGF-β1 beads, an anti-HA-tag mAb-HRP-DirecT (MBL) and the TGF-β1 beads were reacted in PBS-T containing 1% BSA for 30 min. After washing with PBST, a SureBlue TMB Microwell Peroxidase Substrate (Kirkegaard & Perry Laboratories) was added for coloration for 10 min. TMB stop solution (Kirkegaard & Perry Laboratories) was then added to stop the coloration reaction. An EnSpire (Perkin Elmer) was used to measure absorbance.
Note that the binding activity was expressed as a relative value when the ability of binding the peptide TGFb1_061 (SEQ ID NO: 62) to TGF-β1 was set to 100%.
As to “67 ({CH2CO}-F[1Nal]VVNVYDE[Gly(NCH2CH2Ph)]V[1Nal]YHVCG; thioether N-16; also: HA-tag) [compound 67]”, the “Activity of binding to TGF-β” value is recorded as 116%.

Consider “63 ({CH2CO}-F[1Nal]VVNVKDD[Gly(NCH2CH2Ph)]V[1Nal]YHVCG; thioether N-16; also: HA-tag) [compound 63]”, for which the “Activity of binding to TGF-β” value came out at 102%.

Regarding “59 ({CH2CO}-F[1Nal]VVNVYDD[Gly(NCH2CH2Ph)]V[1Nal][3Pal]HVCG; thioether N-16; also: HA-tag) [compound 59]”, the “Activity of binding to TGF-β” value worked out at 95%.

Take “52 ({CH2CO}-F[Trp(6-aza)]VVNVYDD[Gly(NCH2CH2Ph)]V[1Nal]YHVCG; thioether N-16; also: HA-tag) [compound 52]”: the “Activity of binding to TGF-β” value is recorded as 85%.

“50 ({CH2CO}-F[1Nal]VVNVYDD[Gly(NCH2CH2Ph)]V[1Nal]YHQCG; thioether N-16; also: HA-tag) [compound 50]”: the “Activity of binding to TGF-β” value worked out at 81%.

For the molecule “69 ({CH2CO}-F[1Nal]VVNV[3Pal]DD[Gly(NCH2CH2Ph)]V[1Nal]YHVCG; thioether N-16; also: HA-tag) [compound 69]”, the “Activity of binding to TGF-β” value is on record as 140%.

Consider “66 ({CH2CO}-F[Trp(7-aza)]VVNVYDD[Gly(NCH2CH2Ph)]V[1Nal]YHVCG; thioether N-16; also: HA-tag) [compound 66]”, for which the “Activity of binding to TGF-β” value came to 106%.

The next test concerns the target T2, recombinant human TGF-β1 (R&D systems) (human, UniProt P01137 279-390). Description: cell-based or functional assay.
Settings: not given
Consider B1, for which the SBE reporter % inhibition, peptide 0.062 nM came out at 5.21%; the SBE reporter % inhibition, peptide 0.185 nM turned out to be 11.3%; the SBE reporter % inhibition, peptide 0.56 nM was determined as 30.2%; the SBE reporter % inhibition, peptide 1.7 nM is 61.6%. In addition, the SBE reporter % inhibition, peptide 5.0 nM was 87.8% and the SBE reporter % inhibition, peptide 15.0 nM was determined as 96.4%.

In the case of B2, the SBE reporter % inhibition, peptide 0.062 nM came out at 6.49%; the SBE reporter % inhibition, peptide 0.185 nM was determined as 20.8%; the SBE reporter % inhibition, peptide 0.56 nM was found to be 53.8%; the SBE reporter % inhibition, peptide 1.7 nM turned out to be 85.2%. Also, the SBE reporter % inhibition, peptide 5.0 nM was 97.1% and the SBE reporter % inhibition, peptide 15.0 nM was found to be 99.5%.

Regarding B3, the SBE reporter % inhibition, peptide 0.062 nM is 10.9%; the SBE reporter % inhibition, peptide 0.185 nM was 14.3%; the SBE reporter % inhibition, peptide 0.56 nM came out at 29.9%; the SBE reporter % inhibition, peptide 1.7 nM came out at 52.5%. Moreover, the SBE reporter % inhibition, peptide 5.0 nM was 80.8% and the SBE reporter % inhibition, peptide 15.0 nM came to 95.2%.

For the molecule B4, the SBE reporter % inhibition, peptide 0.062 nM came to 8.5%; the SBE reporter % inhibition, peptide 0.185 nM is 15.8%; the SBE reporter % inhibition, peptide 0.56 nM was 36.3%; the SBE reporter % inhibition, peptide 1.7 nM was 70.4%. The SBE reporter % inhibition, peptide 5.0 nM came to 89.3% and the SBE reporter % inhibition, peptide 15.0 nM is 96.9%.

Regarding B5, the SBE reporter % inhibition, peptide 0.062 nM stood at 6.85%; the SBE reporter % inhibition, peptide 0.185 nM worked out at 17.8%; the SBE reporter % inhibition, peptide 0.56 nM stood at 41.4%; the SBE reporter % inhibition, peptide 1.7 nM worked out at 74.3%. In addition, the SBE reporter % inhibition, peptide 5.0 nM was 93.4% and the SBE reporter % inhibition, peptide 15.0 nM is 98%.

For a further test, the target named is T2, recombinant human TGF-β1 (R&D systems). Description: cell-based or functional assay.
Settings: not given
This is another data set of the same source.
B6: the “SBE reporter % inhibition, peptide 0.062 nM” value was 9.29%; the “SBE reporter % inhibition, peptide 0.185 nM” value was 20.1%; the “SBE reporter % inhibition, peptide 0.56 nM” value was 51.9%; the “SBE reporter % inhibition, peptide 1.7 nM” value turned out to be 84.9%. Further, the “SBE reporter % inhibition, peptide 5.0 nM” value was found to be 96.7% and the “SBE reporter % inhibition, peptide 15.0 nM” value was 99.1%.
